Data published in patent US11873336 (TENEOBIO, dated 2024).

T1: human CD22 protein (recombinant CD22 extracellular domain) (human, UniProt P20273 20-687)
T1 construct: extracellular domain; also called SIGLEC-2
T1 sequence (looked up): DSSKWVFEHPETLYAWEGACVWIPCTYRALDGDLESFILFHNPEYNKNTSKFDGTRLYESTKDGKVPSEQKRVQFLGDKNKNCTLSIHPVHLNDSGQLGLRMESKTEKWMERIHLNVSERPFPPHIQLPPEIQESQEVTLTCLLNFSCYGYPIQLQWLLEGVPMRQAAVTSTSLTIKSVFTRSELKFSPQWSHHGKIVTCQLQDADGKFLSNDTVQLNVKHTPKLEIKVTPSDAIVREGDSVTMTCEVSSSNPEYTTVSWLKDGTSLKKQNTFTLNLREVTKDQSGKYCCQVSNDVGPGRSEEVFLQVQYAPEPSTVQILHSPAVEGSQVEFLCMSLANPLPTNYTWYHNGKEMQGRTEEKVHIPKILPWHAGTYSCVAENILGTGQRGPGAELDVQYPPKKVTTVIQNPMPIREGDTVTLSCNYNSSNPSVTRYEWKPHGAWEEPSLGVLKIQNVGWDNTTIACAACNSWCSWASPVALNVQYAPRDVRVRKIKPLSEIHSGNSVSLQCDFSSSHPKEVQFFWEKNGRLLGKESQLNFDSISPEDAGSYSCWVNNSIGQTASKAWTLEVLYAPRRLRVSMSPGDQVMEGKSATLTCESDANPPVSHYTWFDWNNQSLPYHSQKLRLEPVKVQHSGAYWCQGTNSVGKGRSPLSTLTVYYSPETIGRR

T2: human CD22 on CD22-positive Burkitt's lymphoma cells (Daudi, Raji, Ramos) (human, UniProt P20273 20-847)
T2 construct: whole, on cells; also called CD22+ cells; CD22 positive cells
T2 sequence (looked up): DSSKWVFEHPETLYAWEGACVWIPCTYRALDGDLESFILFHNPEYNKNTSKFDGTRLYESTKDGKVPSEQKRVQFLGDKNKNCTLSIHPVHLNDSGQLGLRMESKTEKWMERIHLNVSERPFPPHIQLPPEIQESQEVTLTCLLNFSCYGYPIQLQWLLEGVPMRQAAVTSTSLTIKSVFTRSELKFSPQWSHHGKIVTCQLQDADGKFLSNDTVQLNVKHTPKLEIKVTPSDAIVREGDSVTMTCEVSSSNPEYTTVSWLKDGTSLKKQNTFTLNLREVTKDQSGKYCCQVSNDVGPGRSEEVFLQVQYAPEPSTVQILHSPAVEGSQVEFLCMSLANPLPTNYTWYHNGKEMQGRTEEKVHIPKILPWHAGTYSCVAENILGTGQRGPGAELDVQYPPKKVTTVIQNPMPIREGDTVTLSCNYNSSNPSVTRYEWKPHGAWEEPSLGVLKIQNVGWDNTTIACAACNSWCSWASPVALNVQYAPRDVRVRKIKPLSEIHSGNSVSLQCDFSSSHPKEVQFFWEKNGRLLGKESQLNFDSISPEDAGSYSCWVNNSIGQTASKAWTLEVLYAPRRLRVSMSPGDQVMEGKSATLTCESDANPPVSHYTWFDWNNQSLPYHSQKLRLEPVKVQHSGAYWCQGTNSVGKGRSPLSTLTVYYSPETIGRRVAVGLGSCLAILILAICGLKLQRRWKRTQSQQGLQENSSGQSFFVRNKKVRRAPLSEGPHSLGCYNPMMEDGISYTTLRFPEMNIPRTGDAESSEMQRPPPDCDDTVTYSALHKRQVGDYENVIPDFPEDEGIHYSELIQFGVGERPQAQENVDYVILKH


What was measured:
[1] = target: T1, human CD22 protein (recombinant CD22 …); assay: ELISA on recombinant CD22 extracellular domain and/or cell binding
[2] = target: T2, human CD22 on CD22-positive Burkitt's …; assay: cell binding, Daudi cells
Procedure: Binding to CD22 positive cells was assessed by flow cytometry (Guava easyCyte 8HT, EMD Millipore) using the Daudi cell line (ATCC). Briefly, 100,000 target cells were stained with a dilution series of purified UniAbs™ for 30 minutes at 4° C. Following incubation, the cells were washed twice with flow cytometry buffer (1×PBS, 1% BSA, 0.1% NaN_3) and stained with goat F(ab')2 anti-human IgG conjugated to R-phycoerythrin (PE) (Southern Biotech, cat. #2042-09) to detect cell-bound antibodies. After a 20-minute incubation at 4° C., the cells were washed twice with flow cytometry buffer and then mean fluorescence intensity (MFI) was measured by flow cytometry. EC50 values were calculated using GraphPad Prism 7. Binding to *cynomolgus* CD22 positive cells was determined using the same protocol with the following modifications: the target cells were from CHO cells stably transfected to express the extracellular domain of *cynomolgus* CD22 and each antibody was tested at a single concentration (~1.7 µg/mL) so EC50 values were not calculated.

binding result [1] | binding result [2] | Binder
binds | binds | anti-CD22 heavy chain-only antibody with the VH of SEQ ID NO: 77 (antibody, V domains shown, Heavy chain-only antibody (UniAb), human IgG) VH: QLQLQESGPGLVKPSETLSLTCTVSGGSISSSSYYWGWFRHPPGKGLDWIGSIHYSGSTYYNPSLKSRVTISVDTSRNQFSLNLSSVTAADTAVYYCTRDDSSNWRSRGQGTLVTVSS
binds | binds | anti-CD22 heavy chain-only antibody with the VH of SEQ ID NO: 81 (antibody, V domains shown, Heavy chain-only antibody (UniAb), human IgG) VH: QLQLQESGPGLVKPSETLSLTCTVSGGSIISSSYYWGWIRQPPGKGLEWIGSIYYSGSAYYHPSLKSRVTISIDTSKNQFSLKLSSVTAADTAVYYCARDDSSNWRSRGQGTLVTVSS
binds | binds | anti-CD22 heavy chain-only antibody with the VH of SEQ ID NO: 84 (antibody, V domains shown, Heavy chain-only antibody (UniAb), human IgG) VH: QLQLQESGPGLVKPSETLSLTCTVSGGSINDNSHYWGWIRQPPGKGLEWIGHIYYSGATYYNPSLKNRVTISVDTSRNQFSLNLSSVTAADTAVYYCTREDSSSWRSRGQGTLVTVSS
binds | binds | anti-CD22 heavy chain-only antibody with the VH of SEQ ID NO: 82 (antibody, V domains shown, Heavy chain-only antibody (UniAb), human IgG) VH: QLQLQESGPGLVKPSETLSLTCTVSGGSISSSSYYWGWIRQPPGKGLEWIGSIYYSGATYYNPSLKNRVTISVDTSRNQFSLNLSSVTAADTAVYYCTRDDSSNWRSRGQGTLVTVSS
binds | binds | anti-CD22 heavy chain-only antibody with the VH of SEQ ID NO: 83 (antibody, V domains shown, Heavy chain-only antibody (UniAb), human IgG) VH: QLQLQESGPGLVKPSETLSLTCTVSGDSISSGDYYWGWIRQPPGKGLEWIGHIYYSGATYYNPSLKNRVTISVDTSRNQSSLNLSSVTAADTAVYYCTREDSSNWRSRGQGTLVTVSS
binds | binds | anti-CD22 heavy chain-only antibody with the VH of SEQ ID NO: 55 (antibody, V domains shown, Heavy chain-only antibody (UniAb), human IgG) VH: QLQLQESGPGLVKPSETLSLTCAVYGGSFSGYYWGWIRQPPGKGLEWIGHIYYSGATYYNPSLKNRVTISVDTSRNQFSLNLSSVTAADTAVYYCTREDSSSWRSRGQGTLVTVSS
